According to article PMC5883314, “Soluble expression of an amebic cysteine protease in the cytoplasm of Escherichia coli SHuffle Express cells and purification of active enzyme” (BMC Biotechnology, 2018):
pIC50: −log10 of the molar value.

Columns and labels:
[1] = biological target: T1, EhCP1 (Cysteine Protease 1 of Entamoeba histolytica) (Entamoeba histolytica, UniProt Q01957); assay: inhibition of purified recombinant enzyme, hydrolysis of Z-Arg-Arg-pNA and Z-Arg-Arg-AMC; format: biochemical
T1 construct: gene CP1; pro-mature polypeptide (Ile14 to Leu315), N-terminal hexahistidine tag

[2] = test system: Cc1cc(=O)oc2cc(NC(=O)[C@H](CCCNC(=N)N)NC(=O)[C@H](CCCNC(=N)N)NC(=O)OCc3ccccc3)ccc12; assay: purified protein
[3] = test system: N=C(N)NCCC[C@H](NC(=O)OCc1ccccc1)C(=O)N[C@@H](CCCNC(=N)N)C(=O)Nc1ccc([N+](=O)[O-])cc1; assay: purified protein

T1 sequence (Q01957 14-315): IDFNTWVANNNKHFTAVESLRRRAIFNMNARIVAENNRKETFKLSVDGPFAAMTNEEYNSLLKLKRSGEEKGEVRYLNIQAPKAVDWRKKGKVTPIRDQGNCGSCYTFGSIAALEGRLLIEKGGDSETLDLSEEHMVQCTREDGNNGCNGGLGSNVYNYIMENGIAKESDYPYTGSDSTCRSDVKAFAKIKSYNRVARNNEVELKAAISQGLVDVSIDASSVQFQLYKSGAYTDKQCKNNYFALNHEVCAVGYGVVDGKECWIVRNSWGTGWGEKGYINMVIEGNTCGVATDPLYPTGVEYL

Compound | pIC50 [1] | Km [2] [µM] | Km [3] [µM]
CC(C)C[C@H](NC(=O)[C@H]1O[C@@H]1C(=O)O)C(=O)NCCCCN=C(N)N [E-64, L-trans-3-carboxyoxiran-2-carbonyl-L-leucylagmatine] | 6.00 |  | 
EhCP1 (Cysteine Protease 1 of Entamoeba histolytica) (Entamoeba histolytica HM-1:IMSS) |  | 6.7 | 57.1
